Data published in patent publication US20100119506A1, “Effectors of PAR-2 Activation and Their Use in the Modulation of Inflammation” (BOEHRINGER INGELHEIM INTERNATIONAL GMBH, priority 2008, published 2010).
Entries after “also recorded” stand apart in the source; their conditions may differ.

Key:
[1] = biological target: T1, PAR-1 peptide (Homo sapiens, UniProt P25116); assay: ELISA binding to PAR-1 peptide
T1 sequence (P25116 38-66 limits assumed): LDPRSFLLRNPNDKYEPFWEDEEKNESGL
Description: (§1) The molecular selectivity of antibodies for PAR-2 versus PAR-1 and PAR-4 was assessed using peptides derived from the N-terminal regions of all three PARs: […]

[2] = biological target: T2, PAR-4 peptide (Homo sapiens, UniProt Q96RI0, C54S); assay: ELISA binding to PAR-4 peptide
T2 sequence (Q96RI0 44-71 C54S): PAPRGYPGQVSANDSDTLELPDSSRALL
Description: as §1

[3] = biological target: PAR-2 peptide (Homo sapiens, UniProt P55085); assay: ELISA binding to PAR-2 peptide; conditions: peptide coupled to Transferrin
Description: as §1

[4] = biological target: T3, PAR-2 (Homo sapiens, UniProt P55085); assay: Binding to PAR-2 transfected HEK293 cells; assay type: cell-based; parameters: expressed in transfected cells; host or cells: HEK293; conditions: HEK-PAR-2 binding
T3 sequence (P55085 26-397): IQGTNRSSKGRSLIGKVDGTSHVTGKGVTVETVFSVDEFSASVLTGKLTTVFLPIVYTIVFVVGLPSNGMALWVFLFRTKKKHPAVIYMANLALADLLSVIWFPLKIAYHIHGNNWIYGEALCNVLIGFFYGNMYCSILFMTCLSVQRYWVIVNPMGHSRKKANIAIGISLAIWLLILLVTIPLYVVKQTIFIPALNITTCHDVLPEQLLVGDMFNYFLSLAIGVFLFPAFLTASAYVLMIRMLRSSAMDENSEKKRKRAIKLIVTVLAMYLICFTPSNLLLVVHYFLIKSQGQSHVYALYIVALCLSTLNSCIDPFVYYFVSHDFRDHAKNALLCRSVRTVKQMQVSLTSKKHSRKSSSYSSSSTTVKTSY
Text: These Fabs were then converted to the IgG4_Pro (“IgG4p”) format. The IgG4_Pro antibodies consist of the variable VH and VL regions derived from corresponding Fabs fused to the constant regions of human IgG4 including a Ser241Pro mutation in the hinge region of the H-chain. The proline substitution in the hinge region is known to prevent the formation of half-molecules in natural human IgG4 molecules (Angal et al. (1993) Molec. Immunol. 30:105-108).

[5] = biological target: T4, PAR-1 (Homo sapiens, UniProt P25116); assay: Thrombin-induced calcium response (FLIPR) in A549 cells; assay type: cell-based; conditions: antibody concentrations up to 300 nM
T4 construct: endogenous in cells; host or cells: A549
T4 sequence (P25116 22-425): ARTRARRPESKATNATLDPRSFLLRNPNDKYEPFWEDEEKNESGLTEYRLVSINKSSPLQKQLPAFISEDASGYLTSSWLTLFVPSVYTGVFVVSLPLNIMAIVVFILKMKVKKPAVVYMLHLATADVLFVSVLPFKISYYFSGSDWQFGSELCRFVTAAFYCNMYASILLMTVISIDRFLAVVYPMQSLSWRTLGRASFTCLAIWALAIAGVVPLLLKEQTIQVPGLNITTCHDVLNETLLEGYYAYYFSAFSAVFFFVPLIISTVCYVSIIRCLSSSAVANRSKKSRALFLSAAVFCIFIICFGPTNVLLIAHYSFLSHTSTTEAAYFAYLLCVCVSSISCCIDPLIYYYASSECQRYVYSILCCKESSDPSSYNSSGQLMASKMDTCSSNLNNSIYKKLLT
Text: (§2) Thrombin activates PAR-1, whereas PAR-2 is activated by trypsin in A549 cells.

[6] = biological target: T3, PAR-2; assay: Trypsin induced calcium response (FLIPR) in A549 cells; assay type: cell-based; parameters: expressing endogenous PAR-2; endogenous in cells; host or cells: A549; conditions: for inhibition of trypsin mediated calcium response/release in A549 (in words): full antibodies
Description: Using A549 cells, PAR-2 activation was measured by detecting the calcium response following trypsin stimulation. Fabs were tested in this assay for their ability to inhibit this response. […] Antibody concentrations are expressed as μg/ml (FIG. 6).
as §2

[7] = biological target: T5, FLAG-tagged PAR-2 (Homo sapiens, UniProt P55085); assay: FLAG-PAR-2 cell-based cleavage assay (flow cytometry); conditions: dHLX bivalent Fab; trypsin 30 nM, 5 minutes
T5 construct: expressed in transfected cells; host or cells: HEK
T5 sequence (P55085 26-397): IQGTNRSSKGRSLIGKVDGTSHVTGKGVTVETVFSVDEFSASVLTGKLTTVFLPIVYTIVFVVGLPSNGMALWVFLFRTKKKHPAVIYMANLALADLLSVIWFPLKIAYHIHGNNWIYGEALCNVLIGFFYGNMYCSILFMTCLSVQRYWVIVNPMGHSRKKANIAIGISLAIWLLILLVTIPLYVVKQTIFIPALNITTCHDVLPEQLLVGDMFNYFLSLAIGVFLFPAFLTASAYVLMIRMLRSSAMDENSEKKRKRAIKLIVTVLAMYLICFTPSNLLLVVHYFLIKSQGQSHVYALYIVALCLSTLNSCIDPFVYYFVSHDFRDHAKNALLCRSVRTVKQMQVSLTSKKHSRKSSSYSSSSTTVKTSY
Description: To assess the ability of antibody Ab3777 to block trypsin mediated cleavage of the PAR-2 N-terminus, antibodies were tested in a FRET assay that measures an increase in fluorescence upon cleavage of a labeled peptide representing the N-terminus of PAR-2. […] To assess the ability of antibodies to block trypsin mediated cleavage of the PAR-2 N-terminus on cells, HEK transfectants over-expressing FLAG-tagged PAR-2 were treated with trypsin in the presence or absence of Ab3777 dHLX bivalent Fabs. […]
Detection of the FLAG-tag on the cell surface correlates with inhibitory activity.

[8] = biological target: PAR-2; assay: Affinity for PAR-2 in phage display selection and affinity maturation; assay type: binding; conditions: initial selection, Fab
Text: Antibody phage display techniques were employed to pan for antibodies (Fab fragments) capable of immunospecifically binding to residues spanning the protease cleavage site at the N-terminal of PAR-2. […] The sequences of the heavy (IgG4) and light (lambda) chain variable regions of the antibody Ab3777 are presented below (CDR residues are underlined): […]

[9] = test system: labeled peptide representing the N-terminus of PAR-2; assay: FRET-based PAR-2 peptide cleavage assay (trypsin); assay type: biochemical
Description: To assess the ability of antibody Ab3777 to block trypsin mediated cleavage of the PAR-2 N-terminus, antibodies were tested in a FRET assay that measures an increase in fluorescence upon cleavage of a labeled peptide representing the N-terminus of PAR-2. […] To assess the ability of antibodies to block trypsin mediated cleavage of the PAR-2 N-terminus on cells, HEK transfectants over-expressing FLAG-tagged PAR-2 were treated with trypsin in the presence or absence of Ab3777 dHLX bivalent Fabs. Activation of PAR-2 results in cleavage/internalization of the receptor resulting in a loss of the FLAG epitope as detected by an antibody in a flow cytometry assay (FIG. 3).
Affinity matured and cross-cloned antibodies in the IgG4_Pro format were evaluated for cell binding, inhibition of trypsin induced calcium responses in a FLIPR assay, inhibition of PAR-2 peptide cleavage in a FRET assay and inhibition of PAR-2 cleavage in a cell based assay system. All candidates show excellent apparent affinity (EC50) for PAR-2 transfected cells and maximal efficacy and potency in all short term cellular assays (Table 4).

[10] = biological target: T6, mouse PAR-2 (Mus musculus, UniProt P55086); assay: FLIPR trypsin-induced calcium release in mouse LLC cells; assay type: cell-based
T6 construct: endogenous in cells; host or cells: LLC (mouse Lewis lung carcinoma)
T6 sequence (P55086 26-399): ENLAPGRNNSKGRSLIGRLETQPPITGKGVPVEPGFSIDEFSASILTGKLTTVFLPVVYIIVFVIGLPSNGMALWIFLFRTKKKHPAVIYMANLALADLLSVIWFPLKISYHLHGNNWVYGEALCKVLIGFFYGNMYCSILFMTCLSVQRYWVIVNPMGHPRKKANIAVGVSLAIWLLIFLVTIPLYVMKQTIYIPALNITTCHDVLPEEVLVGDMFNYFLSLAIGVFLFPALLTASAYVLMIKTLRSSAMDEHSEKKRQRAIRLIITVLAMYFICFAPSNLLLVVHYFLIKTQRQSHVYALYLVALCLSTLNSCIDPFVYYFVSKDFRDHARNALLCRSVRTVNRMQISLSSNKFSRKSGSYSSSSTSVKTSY
Description: To further assess functional cross-reactivity with mouse PAR-2, the antibodies were tested in FLIPR assays with the mouse Lewis lung carcinoma (LLC) cell line.

B1: Ab4999: affinity matured from Ab3777, L-CDR3 optimized; light chain SEQ ID NO:27, heavy chain SEQ ID NO:7 (antibody, V domains shown)
VH: QVQLVESGGGLVQPGGSLRLSCAASGFTFSSYAMNWVRQAPGKGLEWVSTISYSSSATSYADSVKGRFTISRDNSKNTLYLQMNSLRAEDTAVYYCARIQNDPMDVWGQGTLVTVSS
VL: DIELTQPPSVSVAPGQTARISCSGDNLGKKYVQWYQQKPGQAPVLVIYDDSNRPSGIPERFSGSNSGNTATLTISGTQAEDEADYYCQTWDYSSIRDETNVFGGGTKLTVLGQ
modifications: Antibody identified via phage display; Antibody modified via affinity maturation
- binding to PAR-1 peptide (in words) [1]: did not exhibit detectable binding
- binding to PAR-4 peptide (in words) [2]: no binding
- binding to PAR-2 peptide (in words) [3]: specific binding
- Ratio of EC50 Fab EC50 IgG [4]: 0.3

B2: Ab5151: cross-cloned: light chain of Ab4999 combined with the heavy chain of Ab5007 (antibody, V domains shown)
VH: QVQLVESGGGLVQPGGSLRLSCAASGFTFSSYAMNWVRQAPGKGLEWVSAISFSGHLTGYADSVKGRFTISRDNSKNTLYLQMNSLRAEDTAVYYCARIQNDPMDVWGQGTLVTVSS
VL: DIELTQPPSVSVAPGQTARISCSGDNLGKKYVQWYQQKPGQAPVLVIYDDSNRPSGIPERFSGSNSGNTATLTISGTQAEDEADYYCQTWDYSSIRDETNVFGGGTKLTVLGQ
- inhibition of the thrombin induced calcium response (in words) [5]: no inhibition
- binding to PAR-1 peptide (in words) [1]: did not exhibit detectable binding
- binding to PAR-4 peptide (in words) [2]: no binding
- inhibition of trypsin mediated calcium response/release in A549 (in words) [6]: significant inhibition
- binding to PAR-2 peptide (in words) [3]: specific binding

B3: Ab3777: parental anti-PAR-2 antibody from phage display; light chain SEQ ID NO:6, heavy chain SEQ ID NO:7 (antibody, V domains shown)
VH: QVQLVESGGGLVQPGGSLRLSCAASGFTFSSYAMNWVRQAPGKGLEWVSTISYSSSATSYADSVKGRFTISRDNSKNTLYLQMNSLRAEDTAVYYCARIQNDPMDVWGQGTLVTVSS
VL: DIELTQPPSVSVAPGQTARISCSGDNLGKKYVQWYQQKPGQAPVLVIYDDSNRPSGIPERFSGSNSGNTATLTISGTQAEDEADYYCSSWDVGSDGWVFGGGTKLTVLGQ
modifications: Antibody identified via phage display
- inhibition in cellular cleavage assay (in words) [7]: partial inhibition
- activity in trypsin induced calcium response assay (in words) ([6]; IgG1 format, A549 cells): active but weaker
- inhibition in trypsin induced calcium response assay (in words) ([6]; bivalent Fab format, A549 cells): partial dose-dependent inhibition
- activity in trypsin induced calcium response assay (in words) ([6]; monovalent format, A549 cells): not active
- Kd [8]: 65 nM
- inhibition of trypsin cleavage of PAR-2 peptide (in words) [9]: partial inhibition; also recorded: partially block this cleavage in a transient manner

B4: Par-C: codon-optimized anti-PAR-2 antibody; Ab4999 light chain (SEQ ID NO:37), Ab5007 or Ab5151 heavy chain (SEQ ID NO:39) (antibody, V domains shown)
VH: QVELVESGGGLVQPGGSLRLSCAASGFTFSSYAMNWVRQAPGKGLEWVSAISFSGHLTGYADSVKGRFTISRDNSKNTLYLQMNSLRAEDTAVYYCARIQNDPMDVWGQGTLVTVSS
VL: DIELTQPPSVSVAPGQTARISCSGDNLGKKYVQWYQQKPGQAPVLVIYDDSNRPSGIPERFSGSNSGNTATLTISGTQAEDEADYYCQTWDYSSIRDETNVFGGGTKLTVLGQ
modifications: Optimized cDNA sequence of variable region of Ab5007 or Ab5151 heavy chain; Optimized cDNA sequence of variable region of Ab4999 light chain
- inhibition of trypsin-induced calcium release in LLC cells (in words) [10]: efficient inhibition
- IC50 ([10]; trypsin-induced, value (SD)): 0.7 nM
- inhibition of trypsin mediated calcium response/release in A549 (in words) [6]: potent inhibition
- IC50 ([6]; trypsin stimulated, value (SD)): 1 nM
